{"source": "patent US20180231548", "key": {"[1]": {"target": "T1, Methyl Red (MR)-AAPV-NBD-UBI29-41", "T1 chain": "AAPVKTGRAKRRMQYNRR"}}}
{"protein": "human neutrophil elastase (protein) IVGGRRARPHAWPFMVSLQLRGGHFCGATLIAPNFVMSAAHCVANVNVRAVRVVLGAHNLSRREPTRQVFAVQRIFENGYDPVNLLNDIVILQLNGSATINANVQVAQLPAQGRRLGNGVQCLAMGWGLLGRNRGIASVLQELNVTVVTSLCRRSNVCTLVRGRQAGVCFGDSGSPLVCNGLIHGIASFVRGGCASGLYPDAFAPVAQFVNWIDSIIQ", "values": [{"measurement": "fluorescence of the cleaved TAMRA compound (spectrophotometer) and NBD labelling of bacteria after cleavage", "setting": "TAMRA-AAPV-NBD-PMX", "result": "the fluorescence of the cleaved TAMRA compound increases in an elastase dependent manner and are inhibited with an elastase inhibitor such as sivelestat"}, {"measurement": "bacterial labelling by NBD after cleavage of the probe; confocal images of a co-culture of bacteria and human neutrophils", "setting": "[1]", "result": "These images confirm the ability of the probe to be cleaved by neutrophil derived HNE and to label bacteria"}]}
